# Target: SafA_(Ntd1) (Salmonella enterica)
# Assay: crystal structure
substance,measurement,value
SafA_(Ntd1) (domain or fragment),stoichiometry N,2
